B1: Gamma-crystallin D, residues 90 to 170; numbered along this chain, P07320 (parent)
chain: IRLYEREDYRGQMIEFTEDCSCLQDRFRFNEIHSLNVLEGSWVLYELSNYRGRQYLLMPGDYRRYQDWGATNARVGSLRRV
B2: Double-stranded RNA-specific adenosine deaminase, residues 296 to 358; numbered along this chain, P55265 (parent)
chain: MAEIKEKICDYLFNVSDSSALNLAKNIGLTKARDINAVLIDMERQGDVYRQGTTPPIWHLTDK

± gives the uncertainty stated by the source.

The variants in one series derive from B1. As to the kind of experiment: abundance fitness (aPCA) (normalised: wild type 0, dead -1); higher = more abundant; growth selection in yeast, the domain comes from the species named. The conditions noted are these: Homo sapiens.
With V81I, the abundance fitness was -0.054 ± 0.15.

Regarding V81L, the abundance fitness turned out to be 0.081 ± 0.37.

In the case of V81A, the abundance fitness is -0.093 ± 0.43.

Take R79S: the abundance fitness is 0.068 ± 0.093.

Consider R79I, for which the abundance fitness was -0.175 ± 0.19.

On to R79N, for which the abundance fitness was -0.316 ± 0.3.

Regarding R79M, the abundance fitness worked out at 0.086 ± 0.22.

Consider R79T, for which the abundance fitness is -0.117 ± 0.11.

With R79G, the abundance fitness was -0.032 ± 0.1.

Turning to R79Q, the abundance fitness worked out at 0.049 ± 0.13.

Consider R79Y, for which the abundance fitness is -0.153 ± 0.19.

Regarding R79W, the abundance fitness was -0.36 ± 0.11.

With R79P, the abundance fitness was -0.93 ± 0.17.

For the variant R79K, the abundance fitness is -0.048 ± 0.14.

Variants of B2 are the subject of another series. The series is described as above. Particulars: Homo sapiens.
MANIKEKICDYLFNVSDSSALNLAKNIGLTKARDINAVLIDMERQGDVYRQGTTPPIWHLTDK [E3N]: the abundance fitness is -0.196 ± 0.078.

With MAFIKEKICDYLFNVSDSSALNLAKNIGLTKARDINAVLIDMERQGDVYRQGTTPPIWHLTDK [E3F], the abundance fitness was -0.561 ± 0.11.

MAGIKEKICDYLFNVSDSSALNLAKNIGLTKARDINAVLIDMERQGDVYRQGTTPPIWHLTDK [E3G]: the abundance fitness is -0.18 ± 0.056.

Consider MALIKEKICDYLFNVSDSSALNLAKNIGLTKARDINAVLIDMERQGDVYRQGTTPPIWHLTDK [E3L], for which the abundance fitness was -0.552 ± 0.055.

As to MAKIKEKICDYLFNVSDSSALNLAKNIGLTKARDINAVLIDMERQGDVYRQGTTPPIWHLTDK [E3K], the abundance fitness is -0.21 ± 0.061.

As to MAHIKEKICDYLFNVSDSSALNLAKNIGLTKARDINAVLIDMERQGDVYRQGTTPPIWHLTDK [E3H], the abundance fitness was -0.285 ± 0.075.

On to MAPIKEKICDYLFNVSDSSALNLAKNIGLTKARDINAVLIDMERQGDVYRQGTTPPIWHLTDK [E3P], for which the abundance fitness was -0.383 ± 0.077.

On to MAAIKEKICDYLFNVSDSSALNLAKNIGLTKARDINAVLIDMERQGDVYRQGTTPPIWHLTDK [E3A], for which the abundance fitness was -0.369 ± 0.074.

For the variant MAMIKEKICDYLFNVSDSSALNLAKNIGLTKARDINAVLIDMERQGDVYRQGTTPPIWHLTDK [E3M], the abundance fitness was -0.621 ± 0.15.

MAIIKEKICDYLFNVSDSSALNLAKNIGLTKARDINAVLIDMERQGDVYRQGTTPPIWHLTDK [E3I]: the abundance fitness is -0.457 ± 0.098.

Turning to MEEIKEKICDYLFNVSDSSALNLAKNIGLTKARDINAVLIDMERQGDVYRQGTTPPIWHLTDK [A2E], the abundance fitness was 0.3 ± 0.057.

As for MKEIKEKICDYLFNVSDSSALNLAKNIGLTKARDINAVLIDMERQGDVYRQGTTPPIWHLTDK [A2K], the abundance fitness was 0.168 ± 0.075.

Turning to MNEIKEKICDYLFNVSDSSALNLAKNIGLTKARDINAVLIDMERQGDVYRQGTTPPIWHLTDK [A2N], the abundance fitness was determined as 0.051 ± 0.078.

On to MCEIKEKICDYLFNVSDSSALNLAKNIGLTKARDINAVLIDMERQGDVYRQGTTPPIWHLTDK [A2C], for which the abundance fitness was -0.393 ± 0.086.

With MVEIKEKICDYLFNVSDSSALNLAKNIGLTKARDINAVLIDMERQGDVYRQGTTPPIWHLTDK [A2V], the abundance fitness is -0.247 ± 0.059.

In the case of MHEIKEKICDYLFNVSDSSALNLAKNIGLTKARDINAVLIDMERQGDVYRQGTTPPIWHLTDK [A2H], the abundance fitness was -0.151 ± 0.18.

For the variant MPEIKEKICDYLFNVSDSSALNLAKNIGLTKARDINAVLIDMERQGDVYRQGTTPPIWHLTDK [A2P], the abundance fitness is -0.335 ± 0.078.

Take MREIKEKICDYLFNVSDSSALNLAKNIGLTKARDINAVLIDMERQGDVYRQGTTPPIWHLTDK [A2R]: the abundance fitness came to 0.004 ± 0.048.

As for MTEIKEKICDYLFNVSDSSALNLAKNIGLTKARDINAVLIDMERQGDVYRQGTTPPIWHLTDK [A2T], the abundance fitness is -0.152 ± 0.086.

As to MFEIKEKICDYLFNVSDSSALNLAKNIGLTKARDINAVLIDMERQGDVYRQGTTPPIWHLTDK [A2F], the abundance fitness was -0.471 ± 0.21.

Consider MSEIKEKICDYLFNVSDSSALNLAKNIGLTKARDINAVLIDMERQGDVYRQGTTPPIWHLTDK [A2S], for which the abundance fitness was -0.024 ± 0.063.

MMEIKEKICDYLFNVSDSSALNLAKNIGLTKARDINAVLIDMERQGDVYRQGTTPPIWHLTDK [A2M]: the abundance fitness amounted to 0.045 ± 0.071.

Take MWEIKEKICDYLFNVSDSSALNLAKNIGLTKARDINAVLIDMERQGDVYRQGTTPPIWHLTDK [A2W]: the abundance fitness is -0.18 ± 0.064.

As to MLEIKEKICDYLFNVSDSSALNLAKNIGLTKARDINAVLIDMERQGDVYRQGTTPPIWHLTDK [A2L], the abundance fitness is -0.096 ± 0.06.

With MQEIKEKICDYLFNVSDSSALNLAKNIGLTKARDINAVLIDMERQGDVYRQGTTPPIWHLTDK [A2Q], the abundance fitness is 0.023 ± 0.092.

Turning to MDEIKEKICDYLFNVSDSSALNLAKNIGLTKARDINAVLIDMERQGDVYRQGTTPPIWHLTDK [A2D], the abundance fitness came out at 0.207 ± 0.099.

With RAEIKEKICDYLFNVSDSSALNLAKNIGLTKARDINAVLIDMERQGDVYRQGTTPPIWHLTDK [M1R], the abundance fitness was 0.151 ± 0.059.

Turning to YAEIKEKICDYLFNVSDSSALNLAKNIGLTKARDINAVLIDMERQGDVYRQGTTPPIWHLTDK [M1Y], the abundance fitness was -0.327 ± 0.26.

For the variant AAEIKEKICDYLFNVSDSSALNLAKNIGLTKARDINAVLIDMERQGDVYRQGTTPPIWHLTDK [M1A], the abundance fitness is -0.418 ± 0.13.

As for CAEIKEKICDYLFNVSDSSALNLAKNIGLTKARDINAVLIDMERQGDVYRQGTTPPIWHLTDK [M1C], the abundance fitness is -0.545 ± 0.3.

For the variant SAEIKEKICDYLFNVSDSSALNLAKNIGLTKARDINAVLIDMERQGDVYRQGTTPPIWHLTDK [M1S], the abundance fitness is -0.034 ± 0.066.

On to KAEIKEKICDYLFNVSDSSALNLAKNIGLTKARDINAVLIDMERQGDVYRQGTTPPIWHLTDK [M1K], for which the abundance fitness amounted to 0.181 ± 0.073.

As to FAEIKEKICDYLFNVSDSSALNLAKNIGLTKARDINAVLIDMERQGDVYRQGTTPPIWHLTDK [M1F], the abundance fitness is 0.108 ± 0.2.

For the variant GAEIKEKICDYLFNVSDSSALNLAKNIGLTKARDINAVLIDMERQGDVYRQGTTPPIWHLTDK [M1G], the abundance fitness was -0.263 ± 0.084.

As to LAEIKEKICDYLFNVSDSSALNLAKNIGLTKARDINAVLIDMERQGDVYRQGTTPPIWHLTDK [M1L], the abundance fitness was -0.29 ± 0.096.

Consider WAEIKEKICDYLFNVSDSSALNLAKNIGLTKARDINAVLIDMERQGDVYRQGTTPPIWHLTDK [M1W], for which the abundance fitness turned out to be 0.017 ± 0.06.

As for DAEIKEKICDYLFNVSDSSALNLAKNIGLTKARDINAVLIDMERQGDVYRQGTTPPIWHLTDK [M1D], the abundance fitness is -0.359 ± 0.11.

Take EAEIKEKICDYLFNVSDSSALNLAKNIGLTKARDINAVLIDMERQGDVYRQGTTPPIWHLTDK [M1E]: the abundance fitness is 0.235 ± 0.13.

As for QAEIKEKICDYLFNVSDSSALNLAKNIGLTKARDINAVLIDMERQGDVYRQGTTPPIWHLTDK [M1Q], the abundance fitness turned out to be 0.435 ± 0.32.
